# Data as given in patent US20250282860A1 (SUZHOU FORLONG BIOTECHNOLOGY, published 2025).
# Substitutions are numbered along the chain they refer to. Numbers in names are those of the source.
# T1: IL-2 receptor α (UniProt P01589 22-213, limits assumed)
# T1 construct: BLI used Anti-human IgG Fc Capture (AHC) probes with the IL-2 mutant diluted as analyte; also called IL-2Rα; CD25
# T1 sequence (looked up): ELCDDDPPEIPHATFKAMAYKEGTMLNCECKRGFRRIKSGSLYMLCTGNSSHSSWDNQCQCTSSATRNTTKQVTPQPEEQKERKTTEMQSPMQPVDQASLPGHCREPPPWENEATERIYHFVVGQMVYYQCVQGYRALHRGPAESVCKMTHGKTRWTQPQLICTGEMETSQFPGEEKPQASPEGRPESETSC
# T2: IL-2 receptor β (UniProt P14784 27-239, limits assumed)
# T2 construct: BLI used Anti-human IgG Fc Capture (AHC) probes with the IL-2 mutant diluted as analyte; also called IL-2Rβ; CD122
# T2 sequence (looked up): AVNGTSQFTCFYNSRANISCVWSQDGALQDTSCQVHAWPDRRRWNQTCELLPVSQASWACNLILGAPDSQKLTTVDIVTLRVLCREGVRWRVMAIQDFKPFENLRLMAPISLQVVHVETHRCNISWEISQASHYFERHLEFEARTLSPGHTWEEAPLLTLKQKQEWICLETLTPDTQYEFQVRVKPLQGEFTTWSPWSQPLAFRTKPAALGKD
# B1: IL-2 mutant 21-C1 (ligand)
# chain: APTSSSTKKTQLQLEHLLLDLQMILNGINNYKNPLLTDMLTLHFYMPKKATELKHLQCLEEELKPLEEVLNFAQSKNFHLRPRDLISNINVIVLELKGSETTFMCEYADETATIVEFLNRWITFCQSIISTLT
# notes: Expressed in Expi293; also called 1.21-C1
# B2: IL-2 mutant 22-D11 (ligand)
# chain: B1 chain with L35D, H43R, Y45F
# notes: Expressed in Expi293; also called 6.22-D11
# B3: IL-2 mutant 24-D2 (ligand)
# chain: B1 chain with L35E, L42F, H43K, F72G
# notes: Expressed in Expi293; also called 13.24-D2
# B4: IL-2 mutant 22-E8 (ligand)
# chain: B1 chain with L35D, D38E, L42F, H43K, F72Q
# notes: Expressed in Expi293; also called 7.22-E8
# B5: IL-2 mutant 24-C6 (ligand)
# chain: B1 chain with L35E, D38E, L42F, H43K, F72A
# notes: Expressed in Expi293; also called 12.24-C6
# B6: IL-2 mutant 22-A4 (ligand)
# chain: B1 chain with L35G, L42I, H43Q, Y45F
# notes: Expressed in Expi293; also called 4.22-A4
# B7: IL-2 mutant 24-E4 (ligand)
# chain: B1 chain with L35D, L42F, H43K, F72A
# notes: Expressed in Expi293; also called 14.24-E4
# B8: IL-2 mutant 23-H9 (ligand)
# chain: B1 chain with L35G, L42Y, H43S, Y45D, F72L
# notes: Expressed in Expi293; also called 10.23-H9
# B9: IL-2 mutant 24-C2 (ligand)
# chain: B1 chain with L35D, D38E, L42F, H43K, F72S
# notes: Expressed in Expi293; also called 11.24-C2
# B10: IL-2 mutant 22-B2 (ligand)
# chain: B1 chain with L35S, H43Q
# notes: Expressed in Expi293; also called 5.22-B2
# B11: IL-2 mutant 23-C8 (ligand)
# chain: B1 chain with L35G, L42F, H43N
# notes: Expressed in Expi293; also called 9.23-C8
# B12: IL-2 mutant 21-F9 (ligand)
# chain: B1 chain with L35M, L42V, H43G, Y45F
# notes: Expressed in Expi293; also called 2.21-F9
# B13: IL-2 mutant 21-F10 (ligand)
# chain: B1 chain with L35E, L42F, H43K, F72A
# notes: Expressed in Expi293; also called 3.21-F10
# B14: IL-2 mutant 24-E4-C125A (ligand)
# chain: B1 chain with L35D, L42F, H43K, F72A, C125A
# B15: IL-2 mutant 21-F10-C125A (ligand)
# chain: B1 chain with L35E, L42F, H43K, F72A, C125A
# B16: IL-2 mutant 22-E8-C125A (ligand)
# chain: B1 chain with L35D, D38E, L42F, H43K, F72Q, C125A
# B17: IL-2 mutant 24-D2-C125A (ligand)
# chain: B1 chain with L35E, L42F, H43K, F72G, C125A
# B18: IL-2 mutant 23-C8-C125A (ligand)
# chain: B1 chain with L35G, L42F, H43N, C125A
# B19: IL-2 mutant 24-C2-C125A (ligand)
# chain: B1 chain with L35D, D38E, L42F, H43K, F72S, C125A
# Molecular target: T1, IL-2 receptor α
# Test: BLI, AHC probes
row,Binder,binding result
1,B1,no binding (tested: 100 nM highest concentration)
2,B2,no binding (tested: 100 nM highest concentration)
3,B3,no binding (tested: 100 nM highest concentration)
4,B4,no binding (tested: 100 nM highest concentration)
5,B5,no binding (tested: 100 nM highest concentration)
6,B6,no binding (tested: 100 nM highest concentration)
7,B7,no binding (tested: 100 nM highest concentration)
8,B8,no binding (tested: 100 nM highest concentration)
9,B9,no binding (tested: 100 nM highest concentration)
10,B10,no binding (tested: 100 nM highest concentration)
11,B11,no binding (tested: 100 nM highest concentration)
12,B12,no binding (tested: 100 nM highest concentration)
13,B13,no binding (tested: 100 nM highest concentration)

# Molecular target: T2, IL-2 receptor β
# Test: BLI, AHC probes, IL-2 diluted 3-fold from 1000 nM to 12.35 nM
row,Binder,Kd [nM]
1,B12,50

# Molecular target: T1, IL-2 receptor α
# Test: BLI with AHC probes; C125A protein in 3-fold dilutions from 100 nM to 1.23 nM
row,Binder,binding result
1,B14,no binding (tested: 100 nM)
2,B15,no binding (tested: 100 nM)
3,B16,no binding (tested: 100 nM)
4,B17,no binding (tested: 100 nM)
5,B18,no binding (tested: 100 nM)
6,B19,no binding (tested: 100 nM)
